Assay results reported in patent US20140017234A1.
pKd: −log10 of the molar value. Several values for one entry are separate records, joined by “and”; a condition that tells them apart may be missing. Identical values can stand only once. Like-named read-outs stand apart in the source and are kept apart here.

Tests used:
[1] = biological target: clade A/E 93TH057-derived gp120 core (HIV-1 clade A/E strain 93TH057)
[2] = biological target: HIV-1 YU-2 Env (gp120) mutant A281T (HIV-1 strain YU-2) (UniProt P35961)
[3] = biological target: HIV-1 YU-2 Env (gp120) mutant N280Y (HIV-1 strain YU-2) (UniProt P35961)
[4] = biological target: HIV-1 YU-2 Env (gp120) mutant T278A (HIV-1 strain YU-2) (UniProt P35961)
[5] = biological target: HIV-1 YU-2 Env (gp120) mutant N276S (HIV-1 strain YU-2) (UniProt P35961)
[6] = biological target: HIV-1 YU-2 Env (gp120) mutant N280D (HIV-1 strain YU-2) (UniProt P35961)
[7] = biological target: HIV-1 YU-2 Env (gp120) mutant N280Y (HIV-1 strain YU-2) (UniProt P35961); remark: listed apart in the source
[8] = biological target: HIV-1 YU-2 Env (gp120) mutant A281S (HIV-1 strain YU-2) (UniProt P35961)
[9] = biological target: HIV-1 YU-2 Env (gp120) mutant A281T (HIV-1 strain YU-2) (UniProt P35961); assay: cell-based or functional assay
[10] = biological target: HIV-1 YU-2 Env (gp120) mutant N279K (HIV-1 strain YU-2) (UniProt P35961)
[11] = biological target: HIV-1 YU-2 Env (gp120) mutant N279K (HIV-1 strain YU-2) (UniProt P35961); remark: listed apart in the source
[12] = biological target: HIV-1 YU-2 Env (gp120) mutant N280D (HIV-1 strain YU-2) (UniProt P35961); remark: listed apart in the source

| Substance | pKd [1] | IC50 (pseudovirus neutralization, TZM-bl cells), first of the two values given [2] | IC50 (pseudovirus neutralization, TZM-bl cells), second of the two values given [2] | IC50 (pseudovirus neutralization, TZM-bl cells) (YU-2^N279H (HIV-1)) | IC50 (pseudovirus neutralization) [4] | IC50 (pseudovirus neutralization) [5] | IC50 (pseudovirus neutralization, TZM-bl cells) [6] | IC50 (pseudovirus neutralization, TZM-bl cells) [10] | IC50 (pseudovirus neutralization, TZM-bl cells) [11] | further results |
| --- | --- | --- | --- | --- | --- | --- | --- | --- | --- | --- |
| 45-46m2 Fab (NIH45-46 with G54W in the heavy chain and S28Y in the light chain) | 7.29 and 7.24 | – | – | – | – | – | – | – | – | – |
| 45-46m2 IgG (NIH45-46 with G54W in the heavy chain and S28Y in the light chain) (antibody) | – | 0.1 µg/mL | > 50 µg/mL | 0.452 µg/mL | 0.001 µg/mL | 0.006 µg/mL | 0.435 µg/mL | – | – | IC50 (pseudovirus neutralization, TZM-bl cells) [3]: 2.23 µg/mL; IC50 (pseudovirus neutralization, TZM-bl cells) [7]: 2.23 µg/mL; IC50 (read off the curve) [8]: 0.01 µg/mL; plateau of the in vitro neutralization curve [9]: 50% |
| 45-46m7 IgG (45-46m2 + HC W47V) (antibody) | – | 0.1 µg/mL | > 50 µg/mL | 0.245 µg/mL | 0.001 µg/mL | 0.003 µg/mL | 0.139 µg/mL | 2.41 µg/mL | 2.41 µg/mL | IC50 (read off the curve) [8]: 0.01 µg/mL; plateau of the in vitro neutralization curve [9]: 50% |
| 45-46m25 IgG (45-46m2 + HC W47I) (antibody) | – | 0.1 µg/mL | > 50 µg/mL | – | – | – | 0.19 µg/mL | – | 2.59 µg/mL | – |
| 45-46m28 IgG (45-46m2 + HC W47T) (antibody) | – | 0.1 µg/mL | > 50 µg/mL | – | – | – | – | 0.65 µg/mL | 0.652 µg/mL | – |
| NIH45-46 Fab | 6.66 and 6.75 | – | – | – | – | – | – | – | – | – |
| NIH45-46^G54W Fab | 7.21 and 7.14 | – | – | – | – | – | – | – | – | – |
| NIH45-46^G54W IgG (antibody) | – | 0.1 µg/mL | > 50 µg/mL | > 50 µg/mL | 0.001 µg/mL | 0.004 µg/mL | – | > 50 µg/mL | – | IC50 (pseudovirus neutralization, TZM-bl cells) [12]: > 50 µg/mL; IC50 (pseudovirus neutralization, TZM-bl cells) (YU-2^R456W (HIV-1)): 5.67 µg/mL; IC50 (pseudovirus neutralization, TZM-bl cells) [3]: > 50 µg/mL |
